Values belong to the substance of their own block, whether it stands above or below them.
Assays:
IL-2 (Homo sapiens) = IL-2 (Homo sapiens) (UniProt P60568); conditions: cited from earlier work
IL-15 (Homo sapiens) = IL-15 (Homo sapiens) (UniProt P40933); conditions: cited from earlier work
[1] = molecular target: trimeric IL-15Rα/IL-2Rβ/γc receptor on Kit225 cells (human (endogenous in Kit225)) (UniProt Q13261)

Sequence of UniProt P60568 (P60568 21-153): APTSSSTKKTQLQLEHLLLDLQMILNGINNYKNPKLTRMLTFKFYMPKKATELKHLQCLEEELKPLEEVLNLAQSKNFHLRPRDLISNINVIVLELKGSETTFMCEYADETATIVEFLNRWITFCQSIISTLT
Sequence of UniProt P40933 (P40933 49-162): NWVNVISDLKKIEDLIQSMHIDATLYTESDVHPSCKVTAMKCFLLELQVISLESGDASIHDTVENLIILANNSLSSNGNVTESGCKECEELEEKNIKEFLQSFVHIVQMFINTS

Substance: IL-2Rα (from UniProt P01589)
Kd (IL-2 (Homo sapiens)): 10 nM

Substance: IL-15Rα (from UniProt Q13261)
Kd (IL-15 (Homo sapiens)): 0.05 nM

IC50 of inhibition of IL-15- or IL-15D8S-induced Kit225 cell proliferation by increasing NANTIL-15 [1]: < 1 nM
IC50 of inhibition of IL-15-induced Stat5 phosphorylation in Kit225 cells by increasing NANTIL-15 (blocks IL-15 acting through the trimeric IL-15Rα/IL-2Rβ/γc receptor) [1]: 1 nM
IC50 of inhibition of IL-15D8S-induced pStat5 signal in Kit225 cells by increasing NANTIL-15 (IL-15D8S signals only through the trimeric receptor) [1]: 1 nM
plateau of inhibition of IL-15-induced Stat5 phosphorylation in Kit225 cells by increasing NANTIL-15 [1]: 60%
Substance: NANTIL-15 (New ANTagonist of IL-15), human IL-15 L45D-N65K-L69R linked to a human Fc (IgG1) (Fc fusion)
